{"source": "paper doi:10.1101/447052", "key": {"[1]": {"molecular_target": "head fiber gp14 of phage P68 (S. aureus phage P68)", "experiment": "cryo-EM structure"}, "[2]": {"molecular_target": "portal protein gp19 of phage P68 (S. aureus phage P68)", "experiment": "cryo-EM structure"}, "[3]": {"molecular_target": "lower collar protein gp18 of phage P68 (S. aureus phage P68)", "experiment": "cryo-EM structure"}, "[4]": {"molecular_target": "tail fiber gp17 of phage P68 (in the virion) (S. aureus phage P68)", "experiment": "cryo-EM structure"}, "[5]": {"molecular_target": "tail fiber protein gp17 of phage P68 (protein used for crystallization) (S. aureus phage P68)", "experiment": "crystal structure"}}, "note": "Where two headings read alike, the source gives them in different places."}
{"substance": "head fiber gp14 of phage P68 (natural protein)", "values": [{"measurement": "stoichiometry N", "setting": "[1]", "value": 3, "unit": "subunits"}]}
{"substance": "inner core protein gp22 of phage P68 (natural protein)", "values": [{"measurement": "stoichiometry N", "setting": "[2]; scale: inner core proteins for each portal protein", "value": 6}]}
{"substance": "lower collar protein gp18 of phage P68 (natural protein)", "values": [{"measurement": "stoichiometry N", "setting": "[3]", "value": 12, "unit": "subunits"}]}
{"substance": "portal protein gp19 of phage P68 (natural protein)", "values": [{"measurement": "stoichiometry N", "setting": "[2]", "value": 12, "unit": "subunits"}]}
{"substance": "tail fiber gp17 of phage P68 (in the virion) (natural protein)", "values": [{"measurement": "stoichiometry N", "setting": "[4]", "value": 3, "unit": "subunits"}]}
{"substance": "tail fiber protein gp17 of phage P68 (protein used for crystallization) (natural protein)", "values": [{"measurement": "stoichiometry N", "setting": "[5]", "value": 3, "unit": "subunits"}]}
